Reference: patent US8241627B2, “Modified polypeptides stabilized in a desired conformation and methods for producing same” (The Center for Blood Research, Inc., priority 2000, dated 2012)
One block for each molecule: values may come before it.

Assays:
Type in all cases: cell-based
wild-type LFA-1 = target: T1, wild-type LFA-1 (Homo sapiens, UniProt P20701); assay: Inhibition of binding of wild-type LFA-1 transfectants to immobilized ICAM-1; settings: lovastatin 0-50 μM; cells stimulated with Mn2+ or antibody CBRLFA1/2
T1 construct: expressed in transfected cells
Experimental: (§1) Briefly, ICAM-1 was purified from human tonsil, and coated to 96-well plates as described previously (Lu, C and Springer T A, (1997) J Immunol 159:268-278). Cells were labeled with a florescence dye 2′,7′-bis-(carboxyethyl)-5(and-6)-carboxyfluorescein, acetoxymethyl ester (BCECF-AM), and resuspended to 1×10^6/ml in L15/FBS. 50 μl cell suspension was mixed in ICAM-1 coated wells with an equal volume of L15/FBS in the absence or presence of monoclonal antibody (CBRLFA-1/2, 10 μg/ml). Monoclonal antibodies were used at final concentration of 1:20 hybridoma supernatant, 1:200 ascites, or μg/ml purified IgG. For testing the effect of divalent cations, BCECF-AM-labeled cells were washed 2× with TS buffer, pH7.5 (20 mM Tris, pH 7.5, 150 mMNaCl) containing 5 mM EDTA, followed by 2 washes with TS buffer, pH7.5. […] The fluorescence content of total input cells and the bound cells in each well was quantitated on a Fluorescent Concentration Analyzer (IDEXX, Westbrook, Me.). The bound cells were expressed as a percentage of total input cells per sample well. […]
(§2) The high affinity open I-domains of the invention can be used to discriminate between direct/competitive and indirect/non-competitive modes of inhibition of LFA-1. […] Accordingly, the ability of lovastatin to inhibit ligand binding of the high-affinity I-domain (K287C/K294C) was assessed. […]

LFA-1 mutant K287C/K294C = target: T2, LFA-1 mutant K287C/K294C (Homo sapiens, UniProt P20701, K312C/K319C); assay: Inhibition of binding of mutant K287C/K294C LFA-1 transfectants to immobilized ICAM-1; settings: lovastatin 0-50 μM
T2 construct: expressed in transfected cells
Experimental: as §1, §2

ICAM-1 = target: T3, ICAM-1 (Homo sapiens, UniProt P05362); assay: Binding of LFA-1 or isolated I-domain transfectants to immobilized ICAM-1; settings: for binding of 293T transient transfectants to immobilized ICAM-1: no activating antibody
T3 construct: ICAM-1 was purified from human tonsil; from tissue; host or cells: human tonsil
Experimental: Clones of the transfectants that expressed similar levels of cell surface LFA-1, as determined by flow cytometry using monoclonal antibody TS2/4 (FIG. 3B), were tested for their ability to bind to immobilized ICAM-1, as previously described (Lu, C and Springer, T A (1997) J Immunol 159:268-278).
Briefly, ICAM-1 was purified from human tonsil, and coated to 96-well plates as described previously (Lu, C and Springer T A, (1997) J Immunol 159:268-278). Cells were labeled with a florescence dye 2′,7′-bis-(carboxyethyl)-5(and-6)-carboxyfluorescein, acetoxymethyl ester (BCECF-AM), and resuspended to 1×10^6/ml in L15/FBS. 50 μl cell suspension was mixed in ICAM-1 coated wells with an equal volume of L15/FBS in the absence or presence of monoclonal antibody (CBRLFA-1/2, 10 μg/ml). Monoclonal antibodies were used at final concentration of 1:20 hybridoma supernatant, 1:200 ascites, or μg/ml purified IgG. For testing the effect of divalent cations, BCECF-AM-labeled cells were washed 2× with TS buffer, pH7.5 (20 mM Tris, pH 7.5, 150 mMNaCl) containing 5 mM EDTA, followed by 2 washes with TS buffer, pH7.5. Cells were then resuspended to 5×10^5/ml in the TS buffer, pH7.5 supplemented with 1 mM MgCl2/CaCl2, MgCl2, MnCl2 mM EDTA, and 100 μl cell suspension was added to ICAM-1 coated wells. After incubation at 37° C. for 30 minutes, unbound cells were washed off on a Microplate Autowasher (Bio-Tek Instruments, Winooski, Vt.). The fluorescence content of total input cells and the bound cells in each well was quantitated on a Fluorescent Concentration Analyzer (IDEXX, Westbrook, Me.). The bound cells were expressed as a percentage of total input cells per sample well.
For generating stable K562 transfectants that express the I-domain on the surface, 20 μg of SspI-linearized pcDNA3.1/Hygro(+) containing the sequences encoding the I domain and the PDGFR transmembrane domain was used to transfect K562 cells by electroporation as described above. Transfectants were selected for resistance to 100 μg/ml hygromycin B, and were further subcloned by cell sorting and limiting dilution; clones that expressed similar levels of surface wild-type and mutant I domain-PDGFR were selected for functional studies. Stable cell lines were maintained in RPMI medium 1640 supplemented with 10% FBS and 100 μg/ml hygromycin B. Cell surface expression of the isolated I-domains was determined by flow cytometry using antibody TS1/22 to the I-domain (FIG. 7). Two clones from each transfectant were selected and tested for binding to immobilized ICAM-1, and similar results were obtained with each of the two clones (FIG. 8A).
If the constitutive ligand binding activity of mutant K287C/K294C is due to the formation of a disulfide bond between the introduced C287 and C294, disruption of the disulfide bond with a reducing agent would abolish ligand binding ability of the mutant. Accordingly, the transfectants were treated with the reducing agent DTT (10 mM) in L15/FBS containing Mg^2+ and Ca^2+, and the ability of transfectants to bind to ICAM-1 was assessed.
Furthermore, the effect of divalent cations on ligand binding of the isolated I-domains expressed on the surface of K562 transfectants was tested. The binding reactions were performed in HEPES/NaCl/glucose (20 mM HEPES, pH 7.5, 140 mM NaCl, 2 mg/ml glucose) supplemented with 1 mM […], 1 mM Mg^2+, or 1 mM EDTA.

iC3b = target: T4, iC3b (Homo sapiens, UniProt P01024); assay: Adhesion of αMβ2 (Mac-1) or αM I-domain transfectants to immobilized iC3b
T4 construct: mutant to iC3b coated on plastic
From the text: In order to assess the effect of the introduction of pairs of potentially disulfide bond-forming cysteines into the I-domain of αMβ2 on CBRM 1/5 activation-dependent epitope expression and ligand binding, plasmids encoding the wild-type or mutant αM subunits and the β2 subunit were co-transfected into 293T and K562 cells. α.β heterodimer formation was confirmed using monoclonal antibody CBRM1/32 which recognizes an epitope in the putative β-propeller domain of the αM subunit only after association with the β2 subunit, and antibody CBRM1/5 was used to detect integrin activation.
Alternatively, isolated Mac-1 mutant I-domains were expressed on the cell surface in conjunction with an artificial signal sequence and transmembrane domain of the PDGF receptor. Adhesion was assayed in L15/FBS/MnCl2 at 37° C.
In a further study, the open I-domain mutants Q 163C/Q309C and D294C/Q311C were stably expressed in K562 cells, and clones expressing the same levels of receptors were selected. Adhesion assays to immobilized iC3b were performed with L15/FBS at 37° C.
Binding of αMβ2 transfectants containing mutant I-domains to immobilized iC3b on plastic was tested in the presence and absence of DTT.

T4 sequence (P01024 23-667 limits assumed): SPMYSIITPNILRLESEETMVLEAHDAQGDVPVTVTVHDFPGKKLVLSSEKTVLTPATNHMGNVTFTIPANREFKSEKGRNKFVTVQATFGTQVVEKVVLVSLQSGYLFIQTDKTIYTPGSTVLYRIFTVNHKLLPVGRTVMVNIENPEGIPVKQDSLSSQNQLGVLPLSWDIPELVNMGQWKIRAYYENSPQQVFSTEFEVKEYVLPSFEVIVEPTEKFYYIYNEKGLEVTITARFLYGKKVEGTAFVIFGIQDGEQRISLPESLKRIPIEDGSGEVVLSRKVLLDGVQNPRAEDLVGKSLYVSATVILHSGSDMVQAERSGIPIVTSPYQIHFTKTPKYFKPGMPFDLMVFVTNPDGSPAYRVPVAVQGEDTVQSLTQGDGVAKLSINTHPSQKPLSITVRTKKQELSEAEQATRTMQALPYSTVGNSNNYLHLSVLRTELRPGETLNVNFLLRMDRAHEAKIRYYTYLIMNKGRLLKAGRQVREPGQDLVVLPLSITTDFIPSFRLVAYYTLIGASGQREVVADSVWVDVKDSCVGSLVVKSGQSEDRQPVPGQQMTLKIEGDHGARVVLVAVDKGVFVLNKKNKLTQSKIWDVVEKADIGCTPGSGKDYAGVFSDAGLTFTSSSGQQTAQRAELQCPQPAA
T4 sequence (P01024 749-1303 limits assumed): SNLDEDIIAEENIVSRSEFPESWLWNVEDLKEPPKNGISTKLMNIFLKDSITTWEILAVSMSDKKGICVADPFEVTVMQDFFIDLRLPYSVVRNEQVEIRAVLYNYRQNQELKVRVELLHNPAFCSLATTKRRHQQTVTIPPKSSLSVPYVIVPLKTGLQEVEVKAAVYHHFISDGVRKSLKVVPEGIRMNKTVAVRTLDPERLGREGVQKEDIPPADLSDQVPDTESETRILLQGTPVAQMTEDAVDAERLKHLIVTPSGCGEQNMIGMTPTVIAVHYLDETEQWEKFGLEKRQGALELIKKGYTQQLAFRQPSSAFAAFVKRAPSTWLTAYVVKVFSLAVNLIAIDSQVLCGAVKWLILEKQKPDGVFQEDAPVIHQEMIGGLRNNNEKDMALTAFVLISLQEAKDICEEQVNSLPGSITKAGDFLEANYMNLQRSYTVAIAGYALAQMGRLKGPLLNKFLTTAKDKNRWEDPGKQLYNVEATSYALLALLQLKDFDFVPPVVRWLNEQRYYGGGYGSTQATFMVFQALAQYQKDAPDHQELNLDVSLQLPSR
T4 sequence (P01024 1321-1663 limits assumed): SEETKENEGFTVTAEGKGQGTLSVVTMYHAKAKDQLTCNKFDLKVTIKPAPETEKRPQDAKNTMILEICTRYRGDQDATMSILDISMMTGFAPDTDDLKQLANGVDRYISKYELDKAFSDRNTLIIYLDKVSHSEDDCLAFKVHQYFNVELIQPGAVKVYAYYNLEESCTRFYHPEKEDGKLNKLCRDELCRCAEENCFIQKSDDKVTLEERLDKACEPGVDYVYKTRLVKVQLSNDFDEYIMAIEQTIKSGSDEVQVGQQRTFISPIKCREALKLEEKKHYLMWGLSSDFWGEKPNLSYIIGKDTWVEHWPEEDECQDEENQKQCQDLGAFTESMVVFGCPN
T3 sequence (P05362 28-532): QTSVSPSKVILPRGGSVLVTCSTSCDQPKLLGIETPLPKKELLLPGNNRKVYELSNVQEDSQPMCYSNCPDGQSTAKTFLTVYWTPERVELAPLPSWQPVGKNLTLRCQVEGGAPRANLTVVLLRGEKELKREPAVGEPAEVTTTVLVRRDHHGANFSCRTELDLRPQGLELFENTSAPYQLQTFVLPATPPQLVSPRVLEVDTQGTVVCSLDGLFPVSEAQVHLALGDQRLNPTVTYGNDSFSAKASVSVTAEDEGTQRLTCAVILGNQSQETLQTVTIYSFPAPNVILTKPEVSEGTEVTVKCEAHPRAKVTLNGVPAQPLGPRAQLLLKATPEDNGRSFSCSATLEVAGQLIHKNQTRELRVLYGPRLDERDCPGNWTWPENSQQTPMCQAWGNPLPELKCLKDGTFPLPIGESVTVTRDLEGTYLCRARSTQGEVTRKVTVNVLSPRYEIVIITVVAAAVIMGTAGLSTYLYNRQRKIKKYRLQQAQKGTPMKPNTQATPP
T1 sequence (P20701 26-1170): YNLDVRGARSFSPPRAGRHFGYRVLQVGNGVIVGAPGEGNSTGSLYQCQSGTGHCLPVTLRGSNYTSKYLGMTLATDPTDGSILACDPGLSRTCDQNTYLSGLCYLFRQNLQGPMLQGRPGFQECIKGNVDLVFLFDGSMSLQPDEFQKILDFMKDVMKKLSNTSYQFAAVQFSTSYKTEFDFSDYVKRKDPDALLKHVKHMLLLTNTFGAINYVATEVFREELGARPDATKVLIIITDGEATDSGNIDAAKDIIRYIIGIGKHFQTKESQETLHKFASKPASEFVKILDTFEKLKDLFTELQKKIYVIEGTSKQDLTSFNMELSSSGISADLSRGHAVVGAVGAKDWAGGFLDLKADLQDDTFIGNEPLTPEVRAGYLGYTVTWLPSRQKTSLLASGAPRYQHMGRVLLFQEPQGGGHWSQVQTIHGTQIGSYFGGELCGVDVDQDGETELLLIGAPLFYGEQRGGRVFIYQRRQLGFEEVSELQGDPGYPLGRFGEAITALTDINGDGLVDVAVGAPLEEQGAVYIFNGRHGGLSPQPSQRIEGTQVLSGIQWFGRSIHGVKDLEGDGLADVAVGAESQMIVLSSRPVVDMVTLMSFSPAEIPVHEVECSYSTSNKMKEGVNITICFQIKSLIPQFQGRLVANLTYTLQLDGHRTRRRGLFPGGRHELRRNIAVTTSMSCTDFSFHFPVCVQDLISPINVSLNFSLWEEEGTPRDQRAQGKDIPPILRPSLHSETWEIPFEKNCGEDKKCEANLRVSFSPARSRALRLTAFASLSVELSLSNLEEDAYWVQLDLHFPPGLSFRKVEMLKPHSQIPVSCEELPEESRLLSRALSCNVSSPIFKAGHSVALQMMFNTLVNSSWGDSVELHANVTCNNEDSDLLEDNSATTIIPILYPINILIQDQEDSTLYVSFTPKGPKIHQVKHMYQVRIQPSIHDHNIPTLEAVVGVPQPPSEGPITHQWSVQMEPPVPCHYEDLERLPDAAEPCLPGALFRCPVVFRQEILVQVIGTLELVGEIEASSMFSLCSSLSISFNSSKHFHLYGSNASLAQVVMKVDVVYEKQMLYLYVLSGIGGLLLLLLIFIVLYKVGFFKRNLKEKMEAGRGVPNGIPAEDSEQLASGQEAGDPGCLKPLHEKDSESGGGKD
T1 sequence (P05107 23-769 partner): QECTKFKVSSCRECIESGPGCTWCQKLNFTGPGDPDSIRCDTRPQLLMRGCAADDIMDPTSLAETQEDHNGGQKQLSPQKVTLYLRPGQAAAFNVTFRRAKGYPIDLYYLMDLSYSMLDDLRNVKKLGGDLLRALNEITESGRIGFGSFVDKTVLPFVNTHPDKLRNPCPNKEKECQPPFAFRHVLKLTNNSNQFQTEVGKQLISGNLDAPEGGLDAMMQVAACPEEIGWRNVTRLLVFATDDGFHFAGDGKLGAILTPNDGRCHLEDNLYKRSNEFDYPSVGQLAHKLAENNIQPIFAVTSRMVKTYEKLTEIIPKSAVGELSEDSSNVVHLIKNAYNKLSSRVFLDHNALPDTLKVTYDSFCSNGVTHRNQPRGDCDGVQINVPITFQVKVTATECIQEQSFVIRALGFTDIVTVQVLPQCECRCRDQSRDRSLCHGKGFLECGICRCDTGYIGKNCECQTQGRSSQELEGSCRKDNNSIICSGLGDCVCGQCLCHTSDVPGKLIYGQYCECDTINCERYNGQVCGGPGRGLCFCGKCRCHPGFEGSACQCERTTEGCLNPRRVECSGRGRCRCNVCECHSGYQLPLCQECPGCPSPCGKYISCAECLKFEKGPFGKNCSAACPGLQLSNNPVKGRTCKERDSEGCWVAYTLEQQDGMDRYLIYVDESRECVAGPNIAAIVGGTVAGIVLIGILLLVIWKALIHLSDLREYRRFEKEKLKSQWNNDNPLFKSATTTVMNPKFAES
T2 sequence (P20701 26-1170 K312C/K319C): as the sequence (P20701 26-1170) above, with K287C, K294C counted along it
T2 sequence (P05107 23-769 partner): as the sequence (P05107 23-769 partner) above

inhibition of ICAM-1 binding by cells expressing wild-type LFA-1 (wild-type LFA-1): inhibits | interference with ligand binding by the high affinity open K287C/K294C mutant (LFA-1 mutant K287C/K294C): does not interfere
Molecule: CC[C@H](C)C(=O)O[C@H]1C[C@@H](C)C=C2C=C[C@H](C)[C@H](CC[C@@H]3C[C@@H](O)CC(=O)O3)[C@H]21 [lovastatin]

binding of 293T transient transfectants to immobilized ICAM-1 (ICAM-1; 293T): comparable to that of the wild-type
Molecule: K294C: single cysteine substitution mutant of LFA-1 αL

binding of 293T transient transfectants to immobilized ICAM-1 with activating mAb CBRLFA-1/2 (ICAM-1; 293T, CBRLFA-1/2 10 μg/ml): increased | binding of 293T transient transfectants to immobilized ICAM-1 (ICAM-1; 293T): reduced binding
Molecule: L289C: single cysteine substitution mutant of LFA-1 αL

effect of DTT on binding of intact αMβ2 (iC3b; DTT): increased binding | adhesion of αMβ2 transfectant to iC3b, +DTT −activation (iC3b; DTT treatment, no activating mAb): ++ (++25-50%) | ligand binding (iC3b) of intact αMβ2 heterodimer in K562 stable transfectants (iC3b; K562, L15/FBS at 37° C.): little basal activity | adhesion of αMβ2 transfectant to iC3b, −DTT −activation (iC3b; no DTT, no activating mAb): ± (+−.: 0-5%)
Molecule: Wild type: wild-type αMβ2 (Mac-1) transfectant
adhesion of αMβ2 transfectant to iC3b, +DTT +activation (iC3b; DTT treatment, activated by mAb CBR LFA-1/2): ++++ (++++: 75-100% of binding by activated wild type transfectant) | adhesion of αMβ2 transfectant to iC3b, −DTT +activation (iC3b; no DTT, activated by mAb CBR LFA-1/2): ++++ (++++: 75-100% of binding by activated wild type transfectant)

binding of 293T transient transfectants to immobilized ICAM-1 (ICAM-1; 293T): constitutively strong binding | binding of K562 stable transfectants to immobilized ICAM-1 with activating mAb CBRLFA-1/2 (ICAM-1; K562, CBRLFA-1/2 10 μg/ml): greatly increased | effect of Mn2+ and Mg2+ on binding of K562 transfectants to ICAM-1 (ICAM-1; K562, intact LFA-1, Mn2+ / Mg2+): greatly enhanced | binding of K562 stable transfectants to immobilized ICAM-1 (ICAM-1; K562, no activating antibody): low basal binding | effect of DTT treatment on binding to ICAM-1 (ICAM-1; K562 transfectants, DTT 10 mM in L15/FBS): increased binding
Molecule: wild-type LFA-1: wild-type human αL/β2 (LFA-1) expressed on 293T or K562 transfectants [reference compound]
